# Assay results: US20080201790A1, “Method and product for regulating cell responsiveness to external signals” (priority 1993, published 2008)
# Assays:
# Type in all cases: cell-based
# Swiss 3T3 cells [1] = experiment: UV-induced apoptosis in Swiss 3T3 clones with IPTG-inducible MEKKCOOH; details: two hours after ultraviolet irradiation
# Experimental: FIG. 16. Induction of MEKKCOOH expression by IPTG in Swiss 3T3 cells increases the number of condensed cells and stimulates c-Myc transactivation. In panel A, cells were incubated in the presence or absence of 5 mM IPTG for forty eight hours. Cells were stained with acrodine orange and condensed cells quantitated per 1000 cells counted per coverslip. In panel B Swiss 3T3 cells with inducible MEKKCOOH were incubated in the presence or absence of IPTG. The indicated cells were then exposed to UV-C irradiation and then fixed and stained with propidium iodide. The percentage of apoptotic cells was enumerated.
# Because stable expression of MEKKCOOH appeared to inhibit clonal expansion of Swiss 3T3 cells under G418 drug selection, clones were isolated having inducible expression of the kinase. The Lac Switch expression system (Stratagene) was used to control the expression of MEKKCOOH. Several independent clones were isolated and their properties analyzed in the presence or absence of IPTG-induced expression of MEKKCOOH. The parental LacR+ clone expressing only the Lac repressor was used as the control. […] This is probably due to a basal level of MEKKCOOH expression in uninduced cells. […] This maybe related to selection of cells during the cloning procedure that adapted to a low, constitutive level of MEKKCOOH expression. […]
# ERK = ERK activity in Swiss 3T3 clones with inducible MEKKCOOH; details: 17 hours IPTG induction
# p38/Hog1 = p38/Hog1 activity in Swiss 3T3 clones with inducible MEKKCOOH; details: 17 hours IPTG induction
# Gal4/Elk-1 = experiment: Gal4-TK-luciferase transactivation analysis, Gal4/Elk-1; details: expression in Swiss 3T3 cells
# Description: Swiss 3T3 cells were transfected using calcium phosphate or lipofectamine with the reporter plasmid Gal4-TK-luciferase, which contains four Gal4 binding sites (Sadowski, I., et al. (1988). Nature 335, 563-564). adjacent to a minimal thymidine kinase (TK) promoter that controls expression of luciferase, in the presence or absence of activator plasmids encoding Gal4(1-147)/Myc(7-101) (Gupta et al. (1993) Proc. Natl. Acad. Sci. USA 90:3216-3220), Gal4(1-47)/Elk-1(83-428) (Marais, et al. (1993) Cell 73:381-393) or Gal4(1-147)/c-Jun(1-233) Hibi et al. (1993) Genes & Development 7:2135-2148). Transfections included pCMV5 without a cDNA insert (basal control), pCMV5MEKKCOOH and in some experiments pCMV5BxBRaf. Cells were incubated for 24-48 hr after transfection, lysed and assayed for luciferase activity. Values were normalized to equivalent μg protein for all experiments.
# REF52 cells = experiment: Cell morphology after microinjection of expression plasmids; details: microinjected REF52 cells
# Experimental: (§1) Swiss 3T3 and REF52 cells were plated on acid-washed glass cover slips in Dulbecco's Modified Eagle's Medium (DMEM) and 10% bovine calf serum (BCS) or newborn calf serum (NCS). Cells were placed in DMEM/0.1% calf serum for overnight incubation prior to microinjection and used for injection at 50-70% confluence. Injections were performed with an Eppendorf automated microinjection system with needles pulled from glass capillaries on a vertical pipette puller (Kopf, Tujunga, Calif.). Cells were injected with pCMVβ-gal in the presence or absence of pCMV5MEKKCOOH or pCMV5BxBRaf at 20-100 ng/μl for each expression plasmid in 100 mM KC1, 5 mM NaPO4, pH 7.3. Following injection cells were placed in 1% NCS for 12-18 hr (Swiss 3T3) or 42 hr (REF52) prior to fixation with paraformaldehyde and staining. Similar results were obtained when cells were placed in 10% NCS after microinjection. Propidium iodide ([…]) was used to stain DNA. X-Gal reactions were performed for six hr.
# Swiss 3T3 cells [2] = experiment: MEKKCOOH-induced cell death after nuclear microinjection of expression plasmids
# Experimental: as §1
# Swiss 3T3 cells were microinjected with 100 ng/μl pCMVβ-gal and 20 ng/μl pCMV5MEKKCOOH. To label free DNA ends fixed and rehydrated cells were incubated with terminal deoxytransferase (TDT) and 10 nM biotin-dUTP following the manufacturer's instructions (Boehringer-Mannheim). Cells were stained with FITC-streptavidin to label DNA fragments. β-gal was detected using rabbit anti-p-gal antibody (Cappel Labs) and a rhodamine-labeled goat anti-rabbit antibody (Cappel Labs).
# Seventeen hours after injection cells were fixed and stained for, β-galactosidase activity with X-Gal. Injected cells attached to the coverslip were scored as positive for cell death when they were highly condensed, small round cells.
molecule,measurement,setting,value
MEKKCOOH: a truncated activated form of MEKK1 including the entire kinase domain (protein) MAMSASQDALPIVPQLQVENGEDIIIIQQDTPETLPGHTKAKQPYREDAEWLKGQQIGLGAFSSCYQAQDVGTGTLMAVKQVTYVRNTSSEQEEVVEALREEIRMMGHLNHPNIIRMLGATCEKSNYNLFIEWMAGGSVAHLLSKYGAFKESVVINYTEQLLRGLSYLHENQIIHRDVKGANLLIDSTGQRLRIADFGAAARLASKGTGAGEFQGQLLGTIAFMAPEVLRGQQYGRSCDVWSVGCAIIEMACAKPPWNAEKHSNHLALIFKIASATTAPSIPSHLSPGLRDVAVRCLELQPQDRPPSRELLKHPVFRTTW,"cells morphologically highly condensed, appearing apoptotic",Swiss 3T3 cells [1],greater than 30%
same,ERK activity,ERK,did not activate either ERK or p38/Hog1 activity
same,p38/Hog1 activity,p38/Hog1,did not activate either ERK or p38/Hog1 activity
same,transactivation function of Elk-1,Gal4/Elk-1,markedly activated
same,cytoplasmic and nuclear morphology,REF52 cells,dramatic cytoplasmic shrinkage and nuclear condensation
same,Condensed Cells (percent of cells injected),"Swiss 3T3 cells [2]; 100 ng/μl plasmids, seventeen hours after injection, X-Gal",Approximately 84%
same,cells with cytoplasmic and nuclear morphology characteristic of apoptosis,Swiss 3T3 cells [2]; 18 hrs postinjection,Greater than 80%
same,"DNA fragmentation (TDT, biotin-dUTP, streptavidin-FITC)",Swiss 3T3 cells [2]; microinjected Swiss 3T3 cells,significant DNA fragmentation
same,induction of cell death on expression (in words),Swiss 3T3 cells [2]; microinjected Swiss 3T3 cells,resulted in significant cell death
